The data set concerns the molecule itself. In words: dynamic light scattering; protein in solution, 10 µM, 25 mM Tris pH 7.4, 3% PEG 8000, NaCl as indicated (lower ionic strength); diameters modelled as Rayleigh spheres; monomers against higher ordered structures.

B1: GFP-syt1 (80–142) (domain or fragment, UniProt P21707 80-142, looked up)
chain: KKCLFKKKNKKKGKEKGGKNAINMKDVKDLGKTMKDQALKDDDAETGLTDGEEKEEPKEEEKL
notes: synaptotagmin 1 (syt1), juxtamembrane linker, residues 80–142; also called GFP-tagged juxtamembrane linker (80–142); isolated juxtamembrane linker (residues 80–142); source: E. coli BL21(DE3), purified (Ni-NTA, eluted with 200 mM imidazole, dialysed); not shown: msGFP (no linker), N-terminal, kept
As for B1, the binding result is listed as “binds”.

These data come from paper PMC10766989, “The juxtamembrane linker of synaptotagmin 1 regulates Ca^2+ binding via liquid-liquid phase separation” (Nature Communications, 2024).
